# B1: t-PA: tissue-type plasminogen activator derived from melanoma cell cultures (BioResponse); infused with saline (protein, UniProt P00750 36-562, looked up)
# Tissue-type plasminogen …: SYQVICRDEKTQMIYQQHQSWLRPVLRSNRVEYCWCNSGRAQCHSVPVKSCSEPRCFNGGTCQQALYFSDFVCQCPEGFAGKCCEIDTRATCYEDQGISYRGTWSTAESGAECTNWNSSALAQKPYSGRRPDAIRLGLGNHNYCRNPDRDSKPWCYVFKAGKYSSEFCSTPACSEGNSDCYFGNGSAYRGTHSLTESGASCLPWNSMILIGKVYTAQNPSAQALGLGKHNYCRNPDGDAKPWCHVLKNRRLTWEYCDVPSCSTCGLRQYSQPQFRIKGGLFADIASHPWQAAIFAKHRRSPGERFLCGGILISSCWILSAAHCFQERFPPHHLTVILGRTYRVVPGEEEQKFEVEKYIVHKEFDDDTYDNDIALLQLKSDSSRCAQESSVVRTVCLPPADLQLPDWTECELSGYGKHEALSPFYSERLKEAHVRLYPSSRCTSQHLLNRTVTDNMLCAGDTRSGGPQANLHDACQGDSGGPLVCLNDGRMTLVGIISWGLGCGQKDVPGVYTKVTNYLDWIRDNMRP
# modifications: melanoma cell derived
# notes: infused with saline
# What was measured:
# [1] = test system: 125I-fibrinogen labelled thrombi in the jugular vein; assay: Rabbit jugular vein thrombosis model: enhancement of t-PA induced lysis; type: in vivo, New Zealand white rabbits; settings: 0.5 mg t-PA infused i.v. over 3 hours, mean of n animals
# Experimental: The experiments are performed with New Zealand white rabbits (weighing 2.3-3.5 kg) anaesthesized by intravenous (marginal ear vein) injection of 30 mg/kg sodium pentobarbital. Through a paramedical incision of the neck, the jugular veins and the right carotid artery are exposed. The right carotid artery is cannulated with a 1.5 mm diameter polyethylene cannula for blood sampling. The two jugular veins are isolated, cleared over a distance of 2 cm, small side branches are ligated. Each jugular segment is emptied of blood and blood flow is temporarily occluded both proximally and distally by two angiostaths, 1.5 cm apart. A 10 cm length 3.0 TiCron braided polyester suture, presoaked in a collagen solution, is introduced lengthwise in the lumen of the isolated jugular vein for a distance of 4 cm to avoid the embolization of the thrombus to be produced. 150 μl of citrated rabbit blood containing 5 μl of ^125 I-fibrinogen (approx. 500 000 cpm) is then aspirated in a 1 ml tubercoline syringe containing 50 μl (5 I.U.) of thrombin and 10 μl of CaCl2 (0.25M). […] At the end of the infusion, the thrombi remaining in the vessel are removed and their size is determined by measuring the amount of residual ^125 I-labeled fibrinogen remaining in the thrombi and comparing the results with those of the saline controls.
# [2] = test system: preformed non-radioactive thrombi in the jugular vein; assay: Rabbit jugular vein thrombosis model: inhibition of thrombus accretion during thrombolysis with t-PA; type: in vivo, New Zealand white rabbits; settings: FIG. 1; three hours infusion of t-PA alone or along with heparin (0.75 mg/kg)
# Experimental: The experiments are performed with New Zealand white rabbits (weighing 2.3-3.5 kg) anaesthesized by intravenous (marginal ear vein) injection of 30 mg/kg sodium pentobarbital. Through a paramedical incision of the neck, the jugular veins and the right carotid artery are exposed. The right carotid artery is cannulated with a 1.5 mm diameter polyethylene cannula for blood sampling. The two jugular veins are isolated, cleared over a distance of 2 cm, small side branches are ligated. Each jugular segment is emptied of blood and blood flow is temporarily occluded both proximally and distally by two angiostaths, 1.5 cm apart. A 10 cm length 3.0 TiCron braided polyester suture, presoaked in a collagen solution, is introduced lengthwise in the lumen of the isolated jugular vein for a distance of 4 cm to avoid the embolization of the thrombus to be produced. […] The effects of standard heparin and recombinant desulfato hirudin in preventing thrombus extension during thrombolysis with t-PA are assessed as their ability to inhibit the accretion of ^125 I-fibrinogen onto autologous non-radioactive thrombi preformed in the jugular vein of rabbits. […] The ratio of the radioactivity of the thrombus to the circulating fibrinogen radioactivity is used to quantify thrombus size, which is then expressed as μg or ^125 I-fibrinogen accreted onto the thrombus.
molecule,measurement,setting,value
B1,% lysis,"[1]; First set of experiments, hirudin 1 mg/kg",44%
same,% lysis,"[1]; Second set of experiments, heparin 0.75 mg/kg",37%
same,125I-fibrinogen accreted onto the thrombus,[2],52 µg
